Assay results as given in the nanobody polyreactivity screen of Harvey et al. (2022).

Test: yeast display, Sf9 membrane polyspecificity reagent, FACS + sequencing; frameworks hold sequencing errors
In short: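 Using colony PCR, genes from sorted yeast display clones were amplified, then sequenced on MiSeq at 2 × 250 and filtered by CDR length. The clones had been stained with 10% biotinylated, detergent-solubilized Sf9 membrane reagent for 1 hour at 4 °C and sorted by FACS into low and high (top ~1%) gates on anti-HA and streptavidin fluorescence. Polyreactivity labels come from the gate of origin.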

| Sequence | polyreactivity (PSR sort gate) |
| --- | --- |
| QVQLVESGGGLVQAGGSLRLSCAASGRIFFRYAMGWSRQAPGKEREFVATITWSGGRTHYADSVKGRFTISRDNAKNTVYLQMNSLKPEDTAVYYCAASYHRYAFDYWGQGTQVTGSS | high polyreactivity |
| QVQLVESVGGLVQAGGSLRLICAASGRIFVHYAMGWYRQAPGKERELVAAISWNGGRTFYADSVKGRFTISRDNAKNTVYLQMNSLKPEDTAVSYCAARSRYSLDYWGQGTQVTVSS | high polyreactivity |
| QVQLLESGGGLVQAGGSLRLSCAASGYTFKAYAMGWYRQAPGKERELVAAISRGGRTNYADSVKGRFTISRDNAKYTVYLQMNSLKPEDTAVYYCNTQRQLGERFYDRSRQGDYWGHGTQVTVSS | high polyreactivity |
| QVQLVESGGGLVQAGGSLRLSCAASGFTFGGYAMGWYRQAPGKERELVAAISKSGGRTYYADSVKGRFTISRDNAKNTVYLQMNSLKPEDTAVYYCAASTIWHYDSWGQGTQVTVSS | high polyreactivity |
| QVQLVESGGGLVQAGGSLRISCAASGFTYSSYAMGWYRQATGKERELVAAISTRGGSTYYADSVKGRFTISRDNAKNTVYLQMNSLKPEDTAVYYCSTGGRGGRRYEYWGQGTQVTVSS | low polyreactivity |
| QVQLVESGGGLVQAGGSLRLSCAASGSIFHTYVMGWYRQAPGKERELVASITRSGGSTYYADSVKGRFTISRDNAMNTVYLQMNSLKPEDTAVYYCAATYRTANHRYYYWGQGTQVTVSS | high polyreactivity |
| QVQLVESGGGLVQAGGSLRLSFDASGLIFWGYAMGWYRQAPGKERELVAAISSSCGSTYYADSVKGRFTISRDNAKNTVYLEMNSLQPEDTAVYYCNADYTYYPGYDFWGQGTQVTVSS | low polyreactivity |
| QVQLQESGGGLVLAGGSLRLSCAASGSITAQAYMGWDRQAPGKEREHVAGINYGDNTNYADSVKGRFTISRDNEHRVSADEQPETGRYRGVLLRGFLEIFYYYIFWGQGTQVTVSS | high polyreactivity |
| QVQLVESGGGLVQAGGSLRLSCAASGRIFSSYAMGWYRQAPGKERELVAAISKSGGNTYYADSVKGRFTISRDNAKNTVYLQMNSLKPEDTAVYYCDAVAPYTLYFWLYYWGQGTHVTVSS | high polyreactivity |
| QVQLVESGGGLVQAGGILRLSCAASGRIFYYNTMGWYRQAPGKERELVAAITRGGGRTYYADSVKGRFTISRDNAKNTVYLQMNSLKPEDTAVYYCNTRSTLGYYWGQGTQVTVSS | high polyreactivity |
| QDQLVDSGGGLLQAGGSLRLSCAASGFTFWQYAMGWYRQAPGKERELVAAISGSGSSTYYADSEKGRFTISRDNAKNTVYLQMISLQPEYTAVYYCATAISRYGRFYYWGQGTQVTLSS | high polyreactivity |
| QVQLVESGGGLVQAGGSLRLSCAASGRTFQYNAMGWYRQAPGKERELVAVISRGGRTNYADSVKGRFTISRDNAKNTVYLQMNSLKPEDTAVYYCAADWYTPQGVGLDYWGQGTQVTVSS | low polyreactivity |
| QVQLVESGGGLVQAGGSLRLSCSASGSIFSGNTMGWYRQAPGKERELVAAISGGGSTNYADSVKGRFTISRDNAKNTVYLQMNSLKPEDTAVYYCAKDLSLGASRMDYWGQGTQVTVSS | low polyreactivity |
| QVQLVESGGGLVQAGGSLRFSCAASGSIFYRNAMGWDRQAPGKEREMVAAISASSGRTYYADSVKGRFTISRDNAKNTVYLQMNSLKPEDTAVYYCAVRPYRSAGGSVTRGAYYYWGQGTQVTVSS | high polyreactivity |
| QVQLVESGGGLVQAGGSLRLSCAASGSIFTRNAMGWYRQAPGKERELVAAISRGGGTNYADSVKGRFTISRDNAKNTVYLQMNSLKPEDTAVYYCAKGWLPNGIPTYFRPYGLDYWGQGTQVTVSS | high polyreactivity |
| QVQLVESGGGLVQAGGSLRLSCAASGFTFRDYAMGWYRPAPGKERELVAAIDIGTTTYYADSVKGRFTISRDNAKNTVYLQMNSLKPEDSAVYYCNKGTNRSGGYDSWGQGTQVTVSS | low polyreactivity |
| QVQLVESGGGLVQAGGSLRLSCAASGRTFGIKAMGWYRQAPGKERELVATITTGTSTNYAVSVKGRFTISRDNAKNTVYLQMNSLKPEDTAVYYCAARDWYGWEFDYWGQGTQVTVSA | low polyreactivity |
| QVQLVESGGGLVQAGGSLRLSCAASGSIFSTYGMGWYRQAPGKERELVAAITTSGGRTYYADSVKGRFTISRDNAKNTVYLQMKSLKPEVTAVYYCKAVRGGRYGLDYWGQGTQVNVSS | high polyreactivity |
| QVQLVESGGGLVQAGGSLRLSCAASGRIFDFNPMGWYRQAPGKEREVVAAISSGGRTKYADSVKGRFTISRDNAKNTVYLQMNSLKPEDTAVYYCAASGSQPDDYWGQGTQVTVSS | high polyreactivity |
| QVQLVESGGGLVQAGGSLRLSCAASGFIFETYAMGWYRQAPGKERELVAAISRGASTYYADSVKGRFTISRDNAKNTVSLQMNSLKQEDTGVYYCAAKRLSWHRYGYWGQGTQVTVSS | low polyreactivity |
| QVQLVESGGGLVQAGGSLRLSCAASGIIISINAMGWYRQAPGKERELVAAISRSGGSTNYADSVKGRFTISRDNAKNTVYLQMNSLKPVDTAVDYCATVHRYSVWSHNYWGQGTQVTVSS | high polyreactivity |
| QVQRVESGGGLVQAGGSLRLSCAPSAIIIYYYAMGCYRQAPGNEMELVAGISYSGGSTYADSVKGRLTISRDNAKNTVYLQMNSLKPEDTAVYFCAADYDYGGHWYDYWGQGTQVTVSS | low polyreactivity |

| Sequence | polyreactivity (PSR sort gate) |
| --- | --- |
| QVQLQESGGGLVQEGGSLRLSCAASGNISPPADMGWYRPAPGKERELVASIGTGGTTNYADSVKGRFTISRDNAKNTVYLQMNSLKPDDTAVYYCAAVRYEYNPYDYWGQGTQVTVSS | low polyreactivity |
| QVQLVESGGGLVQAGGILRLSCAASGFTFHRYAMGWYRQAPGKERELVARITRGGSTKYADSVKGRFTISRDNAKNTVYLQMNSLKPEDTAVYYCAADYGGFLGYDYWGQGNQVTVSS | high polyreactivity |
| QVQLVESGGGLVQAGGSLRLSCAASRRTFKSSAMGWYRPEPGKERELVAAISRSGGITYYADSVKGRFTISRDNAKNTVYLQMNSLKPEDTAVYYCAAVGYQYRHRRFYYWGQGTQVTVSS | high polyreactivity |
| QVQLVESGGGLVQAGGSLRLSCAASGSIFRYYAMVWYRQAPGKERELVAAISSGGNTKYADSVKGRFTISRDNAKNTVYLQRNSLKPADTAVYYCNADGKAGGDYDYWGQGTQVTVSS | low polyreactivity |
| QVQLVESGGGLVQAGGSLRLSCAASGSTFRPYGMGWYRQAPGKERELVAAINSGDSTYYADSVKGRFTISRDNAKNTFYLQMNSLKPEDTAVYYCNADVWWDTWFLDGYDYWGQGTQVTVSS | high polyreactivity |
| QVQLVESGGGLVQAGGSLRLSCAASGFIFFYYAMGWYRQAPGKERELVAAISASGGSTYYADSVKGRFTMSRDNAKNTVYLQMNSLKPEDTAVYYCATDPISRARLYGQRDYWGQGTQVTVSS | high polyreactivity |
| QVQLVETGGGLVQAGGSLRLSCAASGSIFPGNAMGWYRQAPGKERELVAVIDFSGASTYYADSVKGRFTISRDNAKNTVYLQMNSLKPEDTADYWGQGTQVTVSS | low polyreactivity |
| QVQLVESGGGLVQAGGSLRLSCAASGLTLTSNAMGWYRQAPGKERELVAAINGSGGITYYADSVKGRFTISRDNAKNTVYLQMNSLKPEDTAVYYCNTVHYNLDYEYDYWGQGTQVTVSS | low polyreactivity |
| QVQLVESGGGLVQAGGSLRLSCAASGFIFYGYAMGWYRQAPGKERELVAGISTGGSTNYADSVKGRFTISRDNAKNTVYLQMNSLKPEDTAVYYCAKRAYFYYGRYDYWGQGTQVTVSS | low polyreactivity |
| QVQLVESGGGLVQAGGSLRLSCAASGLTFDYYAMGWYRQAPGKERELVAVISRVGSTYYADSVKGRFTISRDNAKNTVYLQINSLKPEDTAVYYCAADLWHSYQDMYYWGQGTQVTVSS | low polyreactivity |
| QVHLVESGVGLVQAGGSLRLSCAASGQIFPYYAMGWYRPAPGKETELVAAITSGGGTYYADSVKGRFTISRDNAKNTVYLQMNSLKPEDTAVYYCAVGSYGHPKHRRNLDYWGQGTQVTVSS | low polyreactivity |
| QVQLVESGGGLVQAGGSLRLSCAASGSTFVGNAMGCYRQAPVKERELVATISNSGGHTFYADSVKGRFTISRDNAKNTVYLQMNSLKPEDTAVFYCAASTSGAIRRDGYWGQGTQVTVSS | low polyreactivity |
| QVQRVESGGGLVQARGSLRLSCAASGLIFPPNVMGWYRQAPGKESEFVAAITSSGSTNYADSVKGRFTISRDNAKYTVYIQMNSLKPEDTAVYYCARDQTWSYQPWYYLSYPQYEYWGQGTEVTVSS | low polyreactivity |
| QVQLVESGGGLVQAGGSLRLSCAASGFNFDGNAMGWYRQEPGKEMELVARITWDDGSTYYADSVKGRFTISRDNAKNTVYLQMNSLKPEDTAVYYCNTDYGEYYSLDLLWWYIPYDYWGQGTQVTVSS | low polyreactivity |
| EEELVESGGGLVQAGGSLRLSCAATGSIFVVNAMRWYRQAPGKERELVAAIARGGITNYADSVKGRFTISRDNAKNTVYLQMNSLKPEDTAVYYCNARGSRWVKPDRDYWGQGTQVTVSS | low polyreactivity |
| QVQLVESGGGLVQAGGSLRIISAASGSTFRWYDMGWYRQAPGKEMELVAAITGSGGATYYADSVKGRFTIARDYAKNTVYLQKNRLKPEDTAVYYCAAVWWVPLAYDDYDYWGQGTQVTVSS | high polyreactivity |
| QVHLVESGGGLVKAGGSLRLSCGASGSTFERYAMGWYRQAPGKERELVAAINWSGGGTYYADSVKGRFTSSRDNAKNTVYLQMNSLNPEDTAVYYCAGDSGTVVFSLWWYEYYYWGQATQVTVSS | low polyreactivity |
| QVQLVESGGGLVQAGGSLRLSCAASGSTLVSNAMGWYRQAPGKERELVASISYSATSTYYADSVKGRFTISRDNAKNTVYLQMNSLKPEDTAVYYCAAKTFRSRYYYWGQGTQVTVSS | high polyreactivity |
| QVQLVESGGGLVQAGGSLRLSCAASGSIFWYYAMGWYRQAPGKERELVASISSSGGSTYYADSVKGRFTISRDNAKNTVYLQMNSLKPEYTAVYYCAKRTNWGYWYNSWGQGTQVTVSS | high polyreactivity |
| QVQLVESGGGLFQAGGSLRLSCAASGRIFVFYAMGWYRQAPGKEMELVAAISKSVGPTYYADSVKGRFTISRDYAKNTVYLQMNSLKPEDTAVYYCNKRSASDLWPQYGYWGQGTQVTVSS | low polyreactivity |
| QVQLVESGGGLVQAGGSLRLSCAASGIIFVKNAMGWYRQAPGKERELVASISGSGGRTYYADSEKGRFTISRDNAKNTVYLQMNILKPEDTAVYYCNTLLAPHARKARRHDYWGQGTQVTVSS | low polyreactivity |
